Biological target: human OT7T175 (metastin receptor) (human) (UniProt Q969F8)
Experiment: cell-based or functional assay

UniProt Q969F8, sequence (Q969F8 whole entry L364H): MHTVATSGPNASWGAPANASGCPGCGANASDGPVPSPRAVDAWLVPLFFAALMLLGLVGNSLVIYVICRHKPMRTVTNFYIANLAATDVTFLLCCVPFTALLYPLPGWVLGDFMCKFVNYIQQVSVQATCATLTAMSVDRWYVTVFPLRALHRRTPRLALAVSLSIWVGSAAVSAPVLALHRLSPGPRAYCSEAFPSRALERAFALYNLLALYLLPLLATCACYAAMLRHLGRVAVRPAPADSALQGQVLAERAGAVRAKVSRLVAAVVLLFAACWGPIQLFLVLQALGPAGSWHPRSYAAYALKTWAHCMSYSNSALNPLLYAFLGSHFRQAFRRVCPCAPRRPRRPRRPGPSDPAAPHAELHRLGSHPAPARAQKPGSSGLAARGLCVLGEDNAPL

Row | Substance | Specific Activity (EC50 of test compound based on EC50 of Metastin (45-54); intracellular calcium, FLIPR) (ratio to EC50 of Metastin (45-54))
1 | des(1)-Ac-[D-Tyr2,Hyp3,Thr5,Cha6,Arg(Me)9,Trp10]MS10 (peptide) | 0.3
2 | des(1)-Ac-[D-Tyr2,Hyp3,Thr5,Cha6,Gly7Ψ((E)CH═CH)Leu8,Trp10]MS10 (peptide) | 0.6
3 | des(1)-Ac-[D-Tyr2,Hyp3,Thr5,Cha6,Ala7,Arg(Me)9,Trp10]MS10 (peptide) | 0.5
4 | des(1)-Ac-[D-Tyr2,Glu3,Thr5,Cha6,Ser(Me)8,Arg(Me)9,Trp10]MS10 (peptide) | 0.5
5 | des(1)-Ac-[D-Tyr2,Hyp3,Thr5,Cha6,Ser(Me)8,Arg(Me)9,Trp10]MS10 (peptide) | 0.5
6 | des(1)-Ac-[D-Tyr2,Glu3,Thr5,Cha6,Nva8,Arg(Me)9,Trp10]MS10 (peptide) | 0.4
7 | des(1)-Ac-[D-Tyr2,Hyp3,Thr5,Ser(Me)8,Arg(Me)9,Trp10]MS10 (peptide) | 0.8

Results, then the substance that gave them:

Row | Specific Activity (EC50 of test compound based on EC50 of Metastin (45-54); intracellular calcium, FLIPR) (ratio to EC50 of Metastin (45-54)) | Substance
8 | 0.4 | des(1)-Ac-[D-Tyr2,Hyp3,Thr5,Gly7Ψ((E)CH═CH)Leu8,Trp10]MS10 (peptide)
9 | 1.2 | des(1)-Ac-[D-Tyr2,Hyp3,Thr5,Gly7Ψ(CH2S)Leu8,Arg(Me)9,Trp10]MS10 (peptide)
10 | 1.4 | des(1)-Ac-[D-Tyr2,Hyp3,Thr5,Cha6,Leu(Me)8,Arg(Me)9,Trp10]MS10 (peptide)
11 | 0.7 | des(1)-Ac-[D-Tyr2,Hyp3,Thr5,Nva8,Arg(Me)9,Trp10]MS10 (peptide)
12 | 1.7 | des(1)-Ac-[D-Tyr2,Hyp3,Thr5,Cha6,Gly7Ψ(CH2S)Leu8,Arg(Me)9,Trp10]MS10 (peptide)
13 | 1.5 | des(1)-Ac-[D-Tyr2,Hyp3,Thr5,Aib7,Arg(Me)9,Trp10]MS10 (peptide)
14 | 0.5 | des(1)-Ac-[D-Tyr2,Hyp3,Thr5,Cha6,Nva8,Arg(Me)9,Trp10]MS10 (peptide)
15 | 0.4 | des(1)-Ac-[D-Tyr2,Pro(4F)3,Thr5,Cha6,Ala(cPr)8,Arg(Me)9,Trp10]MS10 (peptide)
16 | 0.6 | des(1)-Ac-[D-Tyr2,Hyp3,Thr5,Phe6Ψ(CH2CH2)AzaGly7,Arg(Me)9,Trp10]MS10 (peptide)
17 | 0.6 | des(1)-Ac-[D-Tyr2,Hyp3,Thr5,Cha6,Nle8,Arg(Me)9,Trp10]MS10 (peptide)
18 | 1 | des(1)-Ac-[D-Tyr2,Hyp3,Thr5,Nal(2)6,Arg(Me)9,Trp10]MS10 (peptide)
